In the nanobody polyreactivity screen of Harvey et al. (2022):

Test: yeast display, Sf9 membrane polyspecificity reagent, FACS + sequencing; frameworks hold sequencing errors
Procedure, shortened: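 A nanobody's polyreactivity label depends on the gate it was sorted from. Yeast display cells were stained with 10% biotinylated, detergent-solubilized Sf9 membrane reagent for 1 hour at 4 °C, enriched on streptavidin microbeads and sorted by FACS. The low and high (top ~1%) gates were set on anti-HA fluorescence for expression and streptavidin fluorescence for reagent binding.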

| Sequence | polyreactivity (PSR sort gate) |
| --- | --- |
| QVQLVESGGGLVQAGGSLRLSCAASGFTFNRNAMGWYRQAPGKERELVAAISRGGSTSYADSVKGRFTISRDNAKNTVYLQMNSLKPEDTAVYYCATYFRVYYSQYDYWGQGTQVTVTS | high polyreactivity |
| QVQLVESGGGLVQAGGSLRLSCAASGFTFNRNAMGWYRQAPGKERFVAAITGSGASTYYADSVKGRFTISRDNAKNTVYLQMNSLKPEDTAVYYCNAEYYAGRYRYDYWGQGTQVTVSS | high polyreactivity |
| QVQLVESGGGLVQAGGSLRLSCAASGFTFNRYAMGWYRQAPGKERELVAAITRRGGSTYYADSVKGRFTISRDNAKNTVYLQMNSLKPEYSAVYYCNVDFQAYGIPMDYWGQGTQVTVSS | high polyreactivity |
| QVQLVESGGGLVQAGGSLRLSCAASGFTFNWNDMGWYRQAPGKERELVAAISGGASTYYADSVKGRFTISRDNAKNTVYLQMNSLKPEDTAVYYCAADLDEWGYLFVYWGQGTQVTGSS | low polyreactivity |
| QVQLVESGGGLVQAGGSLRLSCAASGFTFNWNTMGWYRQAPGKERELVAAISSGGITYYADSVKGRFTISRDNAKNTVYLQMNSLKPEDTAVYYCNVRPFRPHNRYGYWGQFTQVTVSS | high polyreactivity |
| QVQLVESGGGLVQAGGSLRLSCAASGFTFNWYAMGWYRQAPGKERELVAAINSSGGNTYYADSVKGRFTISRDTAKNTVYLQMNSLKPDDTAVYYCVFVYVYDYYYWGQGTQVTVSS | high polyreactivity |
| QVQLVESGGGLVQAGGSLRLSCAASGFTFNYNAMGWYRQAPGKERELVAAISASGGTTYYADSVKGRFTISRDNAKNTVYLQMNSLKPEDTAVYYCAAPKLDDYDYWGQGTQVTVSS | low polyreactivity |
| QVQLVESGGGLVQAGGSLRLSCAASGFTFNYYAMGWYRQAHGKEREFVAAISRGGGRTYYADSVKGRFTISRDNAKNTVYLQMNSLKPEDTAVYYCAAQSVPYAYRLASYDYWGQGTQVTVSS | high polyreactivity |
| QVQLVESGGGLVQAGGSLRLSCAASGFTFNYYAMGWYRQAPGKERELVAAITSSGGSTYYADSVKGRFTISRDNAKNTVYLQMNSLKPEDTAVYYCNAAVYAHRYIYGFDYWGQGTQVTVSS | high polyreactivity |
| QVQLVESGGGLVQAGGSLRLSCAASGFTFNYYTMGWYRQAPGKERELVAAISGSGVSTYYADSVKGRFTISRDNAKNTVYLQMNSLKPEDTAVYYCNKLFGIYWGQGTQVTVSS | high polyreactivity |
| QVQLVESGGGLVQAGGSLRLSCAASGFTFPGYAMGWYRQAPGNEREFVAAITWSGGRTYYADSVKGRFTISRDNAKNTVYLQMNSLKPEDTAVYYCAAVYRGTWYDYDYWGQGTQVTVSS | high polyreactivity |
| QVQLVESGGGLVQAGGSLRLSCAASGFTFPHYMGWYRQAPGKERELVAAINVSGGSTSYADSVKGRFTISRDNAKNTVYLQMNSLKPEDTAVYYCAKDLRFRLFSYPSDYWGQATQVTVSS | low polyreactivity |
| QVQLVESGGGLVQAGGSLRLSCAASGFTFPIYAMGWYRQAPGKERELVAAITTRGGRTYYADSVKGRFTISRDNAKNTVYLQMNSLKPEDTAVYYCTTRGRRTDYDYWGQGTQVTVSS | high polyreactivity |
| QVQLVESGGGLVQAGGSLRLSCAASGFTFPSNGMGWYRQAPGKERELVAVIDWSDDSTYYADSVKGRFTISRDNAKNTVYLQMNSLKPEDTAVYYCNARHYLYHGYIVPKYSYGYDYWGQGTQVTVSS | low polyreactivity |
| QVQLVESGGGLVQAGGSLRLSCAASGFTFPSYAMGWYRQAPGKERELVAAISYRGGRTYYADSVKGRFTISRDNAKNTVYLQMNSLKPEDTAVYYCAAKGWYFGYGRYGYWGQGTQVTVSS | high polyreactivity |
| QVQLVESGGGLVQAGGSLRLSCAASGFTFPSYDMGWYRQAPGKERELVAAISWSGTSTYYADSVKGRFTISRDNAKNTVYLQMNSLKPEDTAVYYCNAQYSYLWGEYGYWGQGTQVTVSS | high polyreactivity |
| QVQLVESGGGLVQAGGSLRLSCAASGFTFPVNAMGWYRQAPGKERELVAAIRWIGGDTYYADSVKGRFTISRDNAKNPVYLQMNSLKPEDTAVYYCAAEDTDDYSIWYEYWGQGTQVTVSS | high polyreactivity |
| QVQLVESGGGLVQAGGSLRLSCAASGFTFPVNTMGWYRQAPGKERELVAAISTSGAGTYYADSVKGRFTISRDNAKNTVYLQMNSLKPEDTAVYYCNADSQPGPYPGIRYDYWGQGTQVTVSS | high polyreactivity |
| QVQLVESGGGLVQAGGSLRLSCAASGFTFPVYAMGWYRQAPGKERELVAAISSGGRTDYADSVKGRFTISRDNAKNTVYLQMNSLKPEDTAVYYCNKARSDHDGRNDSWGQGTQVTVSS | high polyreactivity |
| QVQLVESGGGLVQAGGSLRLSCAASGFTFPWYAKGWYRQAPGKERELVAAITSGSSTYYADSVKGRFTISRDNAKNTVYLQMNSLKPEVTAVYYCAKDGGWSRLHYNYWGQGTQVTVSS | high polyreactivity |
| QVQLVESGGGLVQAGGSLRLSCAASGFTFPWYAMGWYRQAPGKERELVAAISTSGGSTYYADSVKGRFTISRDNAKNTVYLQMNSLKPEDTAVYYCAVGRKFGRYRVPFVVPYEYWGQGTQVTVSS | high polyreactivity |

| Sequence | polyreactivity (PSR sort gate) |
| --- | --- |
| QVQLVESGGGLVQAGGSLRLSCAASGFTFPYAMGWYTQAPGKERELVAGISWSGGSTYYADSVKGRFTISRDNAKNTVYLQMNSLKPEDTAVYYCNKYVQSGGTYDYWGQGTQVTVSS | low polyreactivity |
| QVQLVESGGGLVQAGGSLRLSCAASGFTFPYYAMGLYRQAPGKERELVATISSGSSTNYADSVKGRFTISRDNAKNTVYLQMNSLKPEDTAVYYCAAVRSGYSGTDGQYSKYGYWGQGTQVTVSS | high polyreactivity |
| QVQLVESGGGLVQAGGSLRLSCAASGFTFPYYAMGWYRQAPGKERELVAAINSVGSTYYADSVKGRFTISRDNAKNTVYLQMNSLKPEDTAVYYCNKRPSHWRHYIMDYWGQGTQVTVSS | high polyreactivity |
| QVQLVESGGGLVQAGGSLRLSCAASGFTFPYYAMGWYRQAPGKERELVAAITSSGGSTYYADSVKGRFTISRDNAKNTVYLQMNSLKPEDTAVYYCAVDAYYYKWYDYWGQGTQVTVSS | high polyreactivity |
| QVQLVESGGGLVQAGGSLRLSCAASGFTFPYYAMGWYRQAPGKERELVAGISWDGDSTYYADSVKGRFTISRDNAKNTVYLQMNSLKPEDTAVYYCAAGYITYYYGEYGYWGQGTQVTVSS | low polyreactivity |
| QVQLVESGGGLVQAGGSLRLSCAASGFTFQEYAMGWYRQAPGKERELVAAITSGTTTNYADSVKGRFTISRDNAKNTVYFQMNSLKPEDTAVYYCNVRSQSGSYRVYEYDYWGQGTQVTVSS | low polyreactivity |
| QVQLVESGGGLVQAGGSLRLSCAASGFTFQPNAMGWYRQAPGKERELVAAITWSTGRTYYADSVKGRFTISRDNAKNTVYLQMNSLKPEDTAVYYCNKRKNLLHSFEYDYWGQGTQVTVSS | low polyreactivity |
| QVQLVESGGGLVQAGGSLRLSCAASGFTFQTYAMGWYRQEPGKERELVATIRTRGGSTSYADSVKGRFTISRDNAKNTVYLQMNSLKPEDTAVYYCNGRLSYRSAWYYGGDRYDYWGQGTQVTVSS | high polyreactivity |
| QVQLVESGGGLVQAGGSLRLSCAASGFTFQYYAMGWYRQAPGKERELVAAISWSGASTYYADSVKGRFTISRDNAKNTVYLQMNSLKPEDTAVYYSAAKYYRDRDWGQGTQVTVSS | high polyreactivity |
| QVQLVESGGGLVQAGGSLRLSCAASGFTFQYYAMGWYRQAPGKERELVAAITRGDSTNYADSVKGRFTISRDNAKNTVYLQMNSLKPEDTAVYYCAKSVRYPASDYWGQGTQVTVSS | low polyreactivity |
| QVQLVESGGGLVQAGGSLRLSCAASGFTFQYYAMGWYRQAPGKERELVAVISRSGGRTYYADSVKGRFTISRDNGKNTVYLQMISLKPEDTAVYYCNAQSYIPTTETYDYWGQGTQVTVSS | high polyreactivity |
| QVQLVESGGGLVQAGGSLRLSCAASGFTFRFYAMGWYRQAPGKERELVAGISSSGGTTYYADSVKGRFTISRDNAKNTVYLQMNSLKPEDTAVYYCNRRFLPAEQYTKKYYYWGQGTQVTVSS | high polyreactivity |
| QVQLVESGGGLVQAGGSLRLSCAASGFTFRFYAMGWYRQAPGKERELVATISSRGGRTYYADSVKGRFTISRDNAKNTVYLQLNSLKPEDTAVYYCAADQKSQYQGNYWGQGTQVTVSS | high polyreactivity |
| QVQLVESGGGLVQAGGSLRLSCAASGFTFRFYVMVWYRLAPGKERELVAAITASGGTTYYADSVKGRFTISRDNAKNSVYLQMNSLKPEDTAVYYCNALYYYLYGYDYWGQGTQVTVSS | high polyreactivity |
| QVQLVESGGGLVQAGGSLRLSCAASGFTFRGYAMGWYRQAPGKERELVAAITWSGGSTYYADSVKGRFTISRDNAKYTVYLQMNSLKPEDTAVYYCNAYYASGYRQYDYWGQGTQVTVSS | high polyreactivity |
| QVQLVESGGGLVQAGGSLRLSCAASGFTFRGYDMGWYRQAPGKERELVAAISGGVSTNYADSVKGRFTISRDNAKNTVYLQMNSLKPEDTAVYYCAAVPVSAGYSSIFDYWGQGTQVTVSS | low polyreactivity |
| QVQLVESGGGLVQAGGSLRLSCAASGFTFRGYVMGWYRQAPGKERELVAAITNIGTSTYYADSVKGRFTISRDNAKNTVYLQMNSLKPEDTAVYYCAARLRTKFYYWGQGTLVTVSS | low polyreactivity |
| QVQLVESGGGLVQAGGSLRLSCAASGFTFRHYTMGWYRQAPGKERELVAAISSSGVTTYYADSVKGRFTISRDNAKNTVYLQMISLKPEDTAVYYCADRPYYYYVDYDYWGLGTQVTVSS | high polyreactivity |
| QVQLVESGGGLVQAGGSLRLSCAASGFTFRIYAMGWYRQAPGKERELVATISWSGTSTYYADSVKGRFTISRDNAKNTVYLQMNSLKPEDTAVYYCAKDGVSFYWLNKYYYWGQGTQVTVSS | low polyreactivity |
| QVQLVESGGGLVQAGGSLRLSCAASGFTFRKNAMGWYRQAPGKERELVAAIRGSAGSTYYADSVKGRFTISRDNAKNTVYLQMNSLKPEDTAVSYCATGGYPSLWDGYGYWGQGTQVTVSS | low polyreactivity |
